These are literature values, as cited in publication PMC9949911.

This data set deals with IL-18bp (Homo sapiens) (UniProt O95998).
Sequence of IL-18bp (Homo sapiens) (O95998 31-194): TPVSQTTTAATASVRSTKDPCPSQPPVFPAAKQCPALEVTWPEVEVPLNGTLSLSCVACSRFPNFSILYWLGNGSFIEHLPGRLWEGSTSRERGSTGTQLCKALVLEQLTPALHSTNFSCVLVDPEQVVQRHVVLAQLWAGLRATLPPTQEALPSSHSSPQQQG

Sequence of IL-18 (Q14116 37-193): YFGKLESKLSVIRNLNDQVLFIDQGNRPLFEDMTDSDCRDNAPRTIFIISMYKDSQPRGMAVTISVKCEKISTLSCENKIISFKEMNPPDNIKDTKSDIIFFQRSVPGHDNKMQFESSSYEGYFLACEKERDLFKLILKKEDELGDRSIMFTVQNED

By Kd is commonly meant a measure of binding affinity in units of concentration. On to IL-18 (from UniProt Q14116), for which the Kd was 0.05 nM.
